Laboratory results from patent US20140274782A1, “AFFINITY REAGENTS AND METHODS FOR DETECTION, PURIFICATION, AND PROTEOMIC ANALYSIS OF METHYLATED PROTEINS” (The Board of Trustees of the Leland Stanford Junior …, priority 2013, published 2014).

T1: G9a and GLP (Homo sapiens, UniProt Q96KQ7+Q9H9B1)
T1 sequence (Q96KQ7 2-1210 limits assumed): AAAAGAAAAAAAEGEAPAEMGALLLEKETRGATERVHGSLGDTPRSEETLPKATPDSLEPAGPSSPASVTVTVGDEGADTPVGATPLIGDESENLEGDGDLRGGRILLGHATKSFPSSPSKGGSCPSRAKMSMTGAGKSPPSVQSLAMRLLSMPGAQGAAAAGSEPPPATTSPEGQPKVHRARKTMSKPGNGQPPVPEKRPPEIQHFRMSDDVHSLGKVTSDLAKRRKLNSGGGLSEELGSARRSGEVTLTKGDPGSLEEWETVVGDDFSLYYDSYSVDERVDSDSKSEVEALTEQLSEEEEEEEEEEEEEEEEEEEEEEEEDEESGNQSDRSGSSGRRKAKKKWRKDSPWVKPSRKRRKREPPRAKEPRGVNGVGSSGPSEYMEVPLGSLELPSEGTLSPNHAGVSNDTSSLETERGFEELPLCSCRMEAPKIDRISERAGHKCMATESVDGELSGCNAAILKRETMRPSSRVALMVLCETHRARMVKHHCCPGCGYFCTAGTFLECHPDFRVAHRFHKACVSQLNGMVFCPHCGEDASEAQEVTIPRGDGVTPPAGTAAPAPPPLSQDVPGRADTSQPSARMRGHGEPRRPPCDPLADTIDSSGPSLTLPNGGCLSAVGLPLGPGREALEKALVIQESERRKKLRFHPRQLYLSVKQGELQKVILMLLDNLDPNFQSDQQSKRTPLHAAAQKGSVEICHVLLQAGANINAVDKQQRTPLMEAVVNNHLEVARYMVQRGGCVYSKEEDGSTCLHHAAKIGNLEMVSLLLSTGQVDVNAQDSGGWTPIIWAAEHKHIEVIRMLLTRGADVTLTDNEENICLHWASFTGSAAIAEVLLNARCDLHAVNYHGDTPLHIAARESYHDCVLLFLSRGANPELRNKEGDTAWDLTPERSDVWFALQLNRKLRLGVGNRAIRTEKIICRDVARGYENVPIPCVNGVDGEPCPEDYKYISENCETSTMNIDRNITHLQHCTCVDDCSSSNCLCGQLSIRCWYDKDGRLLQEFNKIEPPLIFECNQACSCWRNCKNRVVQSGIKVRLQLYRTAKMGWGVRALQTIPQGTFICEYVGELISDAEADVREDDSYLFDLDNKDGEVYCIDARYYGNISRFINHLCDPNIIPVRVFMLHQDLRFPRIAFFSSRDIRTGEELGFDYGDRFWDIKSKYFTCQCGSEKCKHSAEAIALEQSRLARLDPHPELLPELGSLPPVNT
T1 sequence (Q9H9B1 2-1298 limits assumed): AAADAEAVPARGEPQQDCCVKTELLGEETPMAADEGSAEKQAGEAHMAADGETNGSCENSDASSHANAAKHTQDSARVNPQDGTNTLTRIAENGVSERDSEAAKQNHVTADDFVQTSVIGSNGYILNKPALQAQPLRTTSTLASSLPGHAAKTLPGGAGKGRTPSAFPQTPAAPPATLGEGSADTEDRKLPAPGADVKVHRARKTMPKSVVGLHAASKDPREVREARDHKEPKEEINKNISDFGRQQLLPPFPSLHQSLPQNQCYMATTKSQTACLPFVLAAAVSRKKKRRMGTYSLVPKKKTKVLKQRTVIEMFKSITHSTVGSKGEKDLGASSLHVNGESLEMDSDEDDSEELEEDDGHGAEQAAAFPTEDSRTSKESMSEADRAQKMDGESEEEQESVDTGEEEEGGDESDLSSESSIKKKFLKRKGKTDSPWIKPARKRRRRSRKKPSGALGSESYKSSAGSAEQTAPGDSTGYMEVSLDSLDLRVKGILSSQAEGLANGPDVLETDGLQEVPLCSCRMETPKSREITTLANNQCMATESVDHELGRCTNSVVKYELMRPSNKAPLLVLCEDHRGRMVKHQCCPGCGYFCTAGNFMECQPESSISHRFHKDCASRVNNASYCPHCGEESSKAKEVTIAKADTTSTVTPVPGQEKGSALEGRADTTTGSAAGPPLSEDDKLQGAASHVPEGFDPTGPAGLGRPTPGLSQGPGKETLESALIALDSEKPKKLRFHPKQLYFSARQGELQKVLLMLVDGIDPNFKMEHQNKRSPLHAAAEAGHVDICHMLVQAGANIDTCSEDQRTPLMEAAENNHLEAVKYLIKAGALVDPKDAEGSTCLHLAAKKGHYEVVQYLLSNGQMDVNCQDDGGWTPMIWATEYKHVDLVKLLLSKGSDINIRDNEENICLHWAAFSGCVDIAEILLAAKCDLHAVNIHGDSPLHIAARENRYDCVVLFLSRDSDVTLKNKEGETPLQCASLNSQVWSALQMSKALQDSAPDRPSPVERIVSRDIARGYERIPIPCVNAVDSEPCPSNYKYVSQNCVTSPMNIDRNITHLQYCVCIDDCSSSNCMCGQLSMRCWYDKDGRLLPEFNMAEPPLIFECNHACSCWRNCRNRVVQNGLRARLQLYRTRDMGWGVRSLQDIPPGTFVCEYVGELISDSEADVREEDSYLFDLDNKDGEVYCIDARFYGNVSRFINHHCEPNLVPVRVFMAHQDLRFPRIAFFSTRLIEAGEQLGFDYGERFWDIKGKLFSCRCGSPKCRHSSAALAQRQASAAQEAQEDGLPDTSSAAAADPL

B1: ILF3 (protein, UniProt Q12906 1-894, looked up)
Interleukin enhancer-binding …: MRPMRIFVNDDRHVMAKHSSVYPTQEELEAVQNMVSHTERALKAVSDWIDEQEKGSSEQAESDNMDVPPEDDSKEGAGEQKTEHMTRTLRGVMRVGLVAKGLLLKGDLDLELVLLCKEKPTTALLDKVADNLAIQLAAVTEDKYEILQSVDDAAIVIKNTKEPPLSLTIHLTSPVVREEMEKVLAGETLSVNDPPDVLDRQKCLAALASLRHAKWFQARANGLKSCVIVIRVLRDLCTRVPTWGPLRGWPLELLCEKSIGTANRPMGAGEALRRVLECLASGIVMPDGSGIYDPCEKEATDAIGHLDRQQREDITQSAQHALRLAAFGQLHKVLGMDPLPSKMPKKPKNENPVDYTVQIPPSTTYAITPMKRPMEEDGEEKSPSKKKKKIQKKEEKAEPPQAMNALMRLNQLKPGLQYKLVSQTGPVHAPIFTMSVEVDGNSFEASGPSKKTAKLHVAVKVLQDMGLPTGAEGRDSSKGEDSAEETEAKPAVVAPAPVVEAVSTPSAAFPSDATAEQGPILTKHGKNPVMELNEKRRGLKYELISETGGSHDKRFVMEVEVDGQKFQGAGSNKKVAKAYAALAALEKLFPDTPLALDANKKKRAPVPVRGGPKFAAKPHNPGFGMGGPMHNEVPPPPNLRGRGRGGSIRGRGRGRGFGGANHGGYMNAGAGYGSYGYGGNSATAGYSQFYSNGGHSGNASGGGGGGGGGSSGYGSYYQGDNYNSPVPPKHAGKKQPHGGQQKPSYGSGYQSHQGQQQSYNQSPYSNYGPPQGKQKGYNHGQGSYSYSNSYNSPGGGGGSDYNYESKFNYSGSGGRSGGNSYGSGGASYNPGSHGGYGGGSGGGSSYQGKQGGYSQSNYNSPGSGQNYSGPPSSYQSSQGGYGRNADHSMNYQYR
B2: RBMX (protein, UniProt P38159 1-391, looked up)
RNA-binding motif protein, X …: MVEADRPGKLFIGGLNTETNEKALEAVFGKYGRIVEVLLMKDRETNKSRGFAFVTFESPADAKDAARDMNGKSLDGKAIKVEQATKPSFESGRRGPPPPPRSRGPPRGLRGGRGGSGGTRGPPSRGGHMDDGGYSMNFNMSSSRGPLPVKRGPPPRSGGPPPKRSAPSGPVRSSSGMGGRAPVSRGRDSYGGPPRREPLPSRRDVYLSPRDDGYSTKDSYSSRDYPSSRDTRDYAPPPRDYTYRDYGHSSSRDDYPSRGYSDRDGYGRDRDYSDHPSGGSYRDSYESYGNSRSAPPTRGPPPSYGGSSRYDDYSSSRDGYGGSRDSYSSSRSDLYSSGRDRVGRQERGLPPSMERGYPPPRDSYSSSSRGAPRGGGRGGSRSDRGGGRSRY
B3: PALLD (protein, UniProt Q8WX93 1-1383, looked up)
Palladin: MSGTSSHESFYDSLSDMQEESKNTDFFPGLSAFLSQEEINKSLDLARRAIADSETEDFDSEKEISQIFSTSPASLCEHPSHKETKLGEHASRRPQDNRSTPVQPLAEKQTKSISSPVSKRKPAMSPLLTRPSYIRSLRKAEKRGAKTPSTNVKPKTPHQRKGGPQSQLCDKAANLIEELTSIFKAAKPRNRSPNGESSSPDSGYLSPKNQPSALLSASASQSPMEDQGEMEREVKSPGARHCYQDNQDLAVPHNRKSHPQPHSALHFPAAPRFIQKLRSQEVAEGSRVYLECRVTGNPTPRVRWFCEGKELHNTPDIQIHCEGGDLHTLIIAEAFEDDTGRYTCLATNPSGSDTTSAEVFIEGASSTDSDSESLAFKSRAGAMPQAQKKTTSVSLTIGSSSPKTGVTTAVIQPLSVPVQQVHSPTSYLCRPDGTTTAYFPPVFTKELQNTAVAEGQVVVLECRVRGAPPLQVQWFRQGSEIQDSPDFRILQKKPRSTAEPEEICTLVIAETFPEDAGIFTCSARNDYGSATSTAQLVVTSANTENCSYESMGESNNDHFQHFPPPPPILETSSLELASKKPSEIQQVNNPELGLSRAALQMQFNAAERETNGVHPSRGVNGLINGKANSNKSLPTPAVLLSPTKEPPPLLAKPKLDPLKLQQLQNQIRLEQEAGARQPPPAPRSAPPSPPFPPPPAFPELAACTPPASPEPMSALASRSAPAMQSSGSFNYARPKQFIAAQNLGPASGHGTPASSPSSSSLPSPMSPTPRQFGRAPVPPFAQPFGAEPEAPWGSSSPSPPPPPPPVFSPTAAFPVPDVFPLPPPPPPLPSPGQASHCSSPATRFGHSQTPAAFLSALLPSQPPPAAVNALGLPKGVTPAGFPKKASRTARIASDEEIQGTKDAVIQDLERKLRFKEDLLNNGQPRLTYEERMARRLLGADSATVFNIQEPEEETANQEYKVSSCEQRLISEIEYRLERSPVDESGDEVQYGDVPVENGMAPFFEMKLKHYKIFEGMPVTFTCRVAGNPKPKIYWFKDGKQISPKSDHYTIQRDLDGTCSLHTTASTLDDDGNYTIMAANPQGRISCTGRLMVQAVNQRGRSPRSPSGHPHVRRPRSRSRDSGDENEPIQERFFRPHFLQAPGDLTVQEGKLCRMDCKVSGLPTPDLSWQLDGKPVRPDSAHKMLVRENGVHSLIIEPVTSRDAGIYTCIATNRAGQNSFSLELVVAAKEAHKPPVFIEKLQNTGVADGYPVRLECRVLGVPPPQIFWKKENESLTHSTDRVSMHQDNHGYICLLIQGATKEDAGWYTVSAKNEAGIVSCTARLDVYTQWHQQSQSTKPKKVRPSASRYAALSDQGLDIKAAFQPEANPSHLTLNTALVESEDL
B4: PCBP2 (protein, UniProt Q15366 1-365, looked up)
Poly(rC)-binding protein 2: MDTGVIEGGLNVTLTIRLLMHGKEVGSIIGKKGESVKKMREESGARINISEGNCPERIITLAGPTNAIFKAFAMIIDKLEEDISSSMTNSTAASRPPVTLRLVVPASQCGSLIGKGGCKIKEIRESTGAQVQVAGDMLPNSTERAITIAGIPQSIIECVKQICVVMLETLSQSPPKGVTIPYRPKPSSSPVIFAGGQDRYSTGSDSASFPHTTPSMCLNPDLEGPPLEAYTIQGQYAIPQPDLTKLHQLAMQQSHFPMTHGNTGFSGIESSSPEVKGYWGLDASAQTTSHELTIPNDLIGCIIGRQGAKINEIRQMSGAQIKIANPVEGSTDRQVTITGSAASISLAQYLINVRLSSETGGMGSS

These molecules were tested on 3×MBT domain of L3MBTL1 (assay: Triple SILAC pull-down, 3xMBT/3xMBTD355N ratio (cytoplasmic, nuclear and chromatin fractions of 293T cells)). Conditions: SILAC ratio, pull-down 3xMBT vs 3xMBTD355N; experiment with UNC0638 in heavy SILAC media.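 Note: proteins quantified with MaxQuant, requiring at least two unique peptides and quantification in both label directions, normalized to the mean of proteins from a digested loading control.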
Format: binding, human
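Throughout, for Relative to UNC0638 Average: mass spectrometry (Q-Exactive) SILAC quantitation, DMSO/UNC0638 ratio computed after subtracting 3×MBTD355N mutant pull-down background, only proteins with at least twofold 3×MBT over mutant signal considered.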
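Throughout, for Relative to UNC0638 UNC Heavy: mass spectrometry (Q-Exactive) SILAC quantitation, DMSO/UNC0638 ratio computed after subtracting 3×MBTD355N mutant pull-down background, only proteins with at least twofold 3×MBT over mutant signal considered.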
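Throughout, for Relative to UNC0638 UNC Light: mass spectrometry (Q-Exactive) SILAC quantitation, DMSO/UNC0638 ratio computed after subtracting 3×MBTD355N mutant pull-down background, only proteins with at least twofold 3×MBT over mutant signal considered.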

Row | Molecule | 3xMBT/D355N UNC Heavy [log base 2]
1 | B1 | 3.53
2 | B2 | 3.98
3 | B3 | 2.50
4 | B4 | 1.88

Same assay, conditions: SILAC ratio, pull-down 3xMBT vs 3xMBTD355N; experiment with UNC0638 in light SILAC media

Row | Molecule | 3xMBT/D355N UNC Light [log base 2]
5 | B1 | 4.28
6 | B2 | 4.49
7 | B3 | 2.31
8 | B4 | 2.41

What follows are molecules tested against T1, G9a and GLP (assay: Triple SILAC pull-down after UNC0638 treatment of 293T cells, DMSO/UNC0638 ratio of protein captured by 3×MBT). Conditions: SILAC ratio DMSO/UNC0638 of protein pulled down with 3xMBT; UNC0638 in heavy SILAC media.
Format: cell-based
Parameters: cells were treated for 24 hours with UNC0638 at 2.5 μM or DMSO vehicle control; endogenous in cells; host or cells: HEK 293T

Row | Relative to UNC0638 UNC Heavy [log base 2] | Molecule
9 | 0.11 | B1
10 | 0.11 | B2
11 | 0.26 | B3
12 | 0.13 | B4

Same assay, conditions: SILAC ratio DMSO/UNC0638 of protein pulled down with 3xMBT; UNC0638 in light SILAC media

Row | Relative to UNC0638 UNC Light [log base 2] | Molecule
13 | 0.23 | B1
14 | 0.24 | B2
15 | 0.09 | B3
16 | 0.21 | B4

Same assay, conditions: average of UNC Light and UNC Heavy experiments

Row | Relative to UNC0638 Average [log base 2] | Molecule
17 | 0.17 | B1
18 | 0.17 | B2
19 | 0.17 | B3
20 | 0.17 | B4
